According to the supplement of paper PMC9170038:

What was measured:
MS2 coat protein [1] = test: apparent KD of MS2 coat protein, switch ON state; designed switch direction (-1 OFF switch, 1 ON switch): -1; higher = weaker reporter binding; conditions: FMN input: 0 or 200 uM; Eterna round: R93 (includes R88 designs)
Summary of the method: (§1)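 Each design's apparent KD comes from the median of binding-curve fits to its normalised clusters. Those clusters carried RNA switches transcribed on-chip from Illumina sequencing clusters. SNAP-549-labelled MS2 coat protein was titrated onto them in twofold steps (0.7 or 1.5 nM to 3 µM; per step 0.8–1.5 h down to 10–20 min). Conditions were 100 mM Tris-HCl pH 7.5, 80 mM KCl, 4 mM MgCl2, without or with constant ligand.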

MS2 coat protein [2] = test: apparent KD of MS2 coat protein, switch OFF state (with FMN for OFF switches, without FMN for ON switches); designed switch direction (-1 OFF switch, 1 ON switch): -1; higher = weaker reporter binding; conditions: FMN input: 0 or 200 uM; Eterna round: R93 (includes R88 designs)
Summary of the method: as §1

Row | Sequence | apparent KD of MS2 coat protein (MS2 coat protein [1]) [nM] | apparent KD of MS2 coat protein (MS2 coat protein [2]) [nM]
1 | AAAAAGUGAGGAUAUGAAAAUAAAAAAAAAAAAAAAAUAAAUCAGAAGGCACAUGAGGAUCACCCAUGUAAAAA [JR_Exc004_Sub1201] | 29.8 | 38
2 | AAAAGUGGAGGAUAUACAUGAGGAUCACCCAUGUGUAAAAAUAAAAACACAAAAGAAAGUAGAAGGCCACAAAG [Mat - Exclusion 3 - Mayanna mod - D115] | 19.4 | 55.2
3 | AAAAAGUCAGGAUAUACAGAAAAAAAAACGAAAAAAAAUCUGUAGAAGGGACAUGAGGAUCACCCAUGUUAAAA [Ex 4 May 13] | 41.5 | 26.8
4 | AAGAACCUAGGAUAUACAUGAGGAUCACCCAUGUAAAAGAAAGAAAAGGGAAAGAAAAGUAGAAGGAGGAAGAA [Menmire-setpenre Amenmesse] | 18.4 | 22.2
5 | AGAAAGUCAGGAUAUAUAGGAAAAAUAAAAAAAAUAAAACUAUAGAAGGGACAUGAGGAUCACCCAUGUUAAGA [Mat - Exclusion 4 - Mayanna - D133] | 34 | 17.8
6 | AAAACGGCAGGAUAUACGAUUGGGAACUAGACCGAGGAACCACAUGAGGAUCACCCAUGUAGAAGGGCCAAAAA [Ex2 Malc#15] | 24.2 | 96.1
7 | AGCUAGUCAGGAUAUACAUGAAAAAAAAAAAAAAAAAAAAAACAUGAGGAUCACCCAUGUAGAAGGGACUAGCA [Starry Esclusion 2 (jandersonlee round 1 mod)] | 95.6 | 98.9
8 | GAACGCCUAGGAUAUACAUGAGGAUCACCCAUGUCUCCCAGUCCUGGAGUGACCUCUAGUAGAAGGAGGAAUAA [Ertein] | 342 | 115
9 | AGCUAGUCAGGAUAUACAAAAAUGAUAGAAGACGUAAGGGAACAUGAGGAUCACCCAUGUAGAAGGGACUAGCA [Diamond 44] | 41 | 129
10 | AAGAAACAUGAGGAUCACCCAUGUGAGGAUAUACAAGAAAGAAAGAAAGAAAGAAGAAGUAGAAGGCACAAAGG [Gaius Valerius] | 31.4 | 14.4
11 | AAUAAACAUGAGGAUCACCCAUGUGAGGAUAUGGUAUAAUUAGGACAGUAAUGAUAAACCAGAAGGCACAAAUA [JR_Exc001_Sub1103] | 35.6 | 42.6
12 | AGUUGGCGAGGAUAUACAUGAGGAUCACCCAUGUGAGAGAAAAAAGUGGAAAAGAAAAGUAGAAGGCGCUGACA [Mat - Exclusion 3 - Lego mod - D90] | 39.4 | 119
13 | AAAAAGAGAGGAUAUACAGGAGGACCACCACAAAAAAAAAUACAUGAGGAUCACCCAUGUAGAAGGCUCAAAAA [Default title] | 35.1 | 66.1
14 | AGUCAUACAGGAUAUACAUGAGGAUCACCCAUGUUUAUCCUAAAAUAAAAAAAAACAUGUAGAAGGGUAUGACA [EX3 215: Super Stable 15] | 15.1 | 14.1
15 | GAUCCACAUGAGGAUCACCCAUGUAAGGAUAUUUAAAACCGGAGACAACCCUCCGAAGAAAGAAGGUACAAAAC [Ququraes] | 13 | 12.6
16 | UCGUGGUCAGGAUAUACAUGAGGAUCACCCAUGUAAAAGAACAUAAAGGAGAGACGACGUAGAAGGGACAAAUA [Ralasoena] | 46.3 | 51.5
17 | AAAAAGUCAGGAUAUACGUACAUGUCGAAAGACGUGAAGGGACAUGAGGAUCACCCAUGUAGAAGGGACAAGAA [Mat - Exclusion 2 - JL mod - D78] | 99.6 | 91.8

Row | Sequence | apparent KD of MS2 coat protein (MS2 coat protein [1]) [nM] | apparent KD of MS2 coat protein (MS2 coat protein [2]) [nM]
18 | CUCUAGUCAGGAUAUACAAGAAAAGAAAAGAAAGAAAAGAAGUAGAAGGGACAUGAGGAUCACCCAUGUAAGAA [EteRNA is fun!] | 70.4 | 91.5
19 | AAAUAGUUAGGAUAUACAUGAGGAUCACCCAUGUGGACUUAUGGCGAGUAAUUUAGUGGUAGAAGGGACUAAAA [EX2 Malc#29] | 46.2 | 47
20 | AAAAAGUCAGGAUAUGGCAAAGGUCACGAAAGUGACAAAGGCUAGAAGGGACAUGAGGAUCACCCAUGUAAAAA [Fiskers Exclusion 4 D3] | 53.4 | 35.3
21 | AAGAAGGAAGGAUAUACAAAAUAAAAGAAAAGAAAGAAAGAACAUGAGGAUCACCCAUGUAGAAGGUCCAAGAA [Sedjefakare] | 29.8 | 34.7
22 | AACCAACAUGAGGAUCACCCAUGUCAGGAUAUGCAUACAACAUACAACAUACAUCAAAGCAGAAGGGACAAAAA [Amethyst 83] | 26.1 | 24.1
23 | AACAGUACAGGAUAUACAUGAGGAUCACCCAUGUGAAAAUAAAGUGGCGUACCACAAAGUAGAAGGGUACUGGA [Moding Maslow revisited (73) 4] | 28.8 | 101
24 | AAGAAUCGAGGAUAUACAUGAAAGAAAGAAAAGAAAAGAAAACAUGAGGAUCACCCAUGUAGAAGGCGAUAGAA [EteRNA is fun!] | 21.3 | 28.7
25 | AGGCAGACAGGAUAUACUUGGGCAGCCAAUAUAAUAAUAUAACAUGAGGAUCACCCAUGUAGAAGGGUCAGAAA [JR_Exc002_Sub209] | 62.6 | 86.7
26 | AAAAAGUGAGGAUAUACAUGAGGAUCACCCAUGUGAAAUCGGAAAAAAAAGGAAAAAAGUAGAAGGCACAAAAA [Mat - Mod of Eli] | 17.1 | 19.3
27 | AGCAAGUUAGGAUAUGCAAAGUCAGGACACACACUGACGAAGCAGAAGGAACAUGAGGAUCACCCAUGUAAGCA [Mat - Exaclusion 4 - Eli mod - D63] | 23.5 | 17.1
28 | UGUUGGCGAGGAUAUACAUGAGGAUCACCCAUGUGAGAGAAAAAAGUGAGAAAGAAAAGUAGAAGGCGCUGACC [salish99-ex3-10] | 68.5 | 203
29 | AAAAAGUCAGGAUAUGUCAAAAGUCACAAAAGUGACAAAAGACAGAAGGGACAUGAGGAUCACCCAUGUAAAAA [Mod of Eli] | 53.1 | 46.1
30 | GAAAAGUGAGGAUAUAGCAAAGGUCACGAAAGUGACAAAGGCUAGAAGGCACAUGAGGAUCACCCAUGUCCAAG [Mat - Exclusion 4 - Eli mod - D99] | 20.3 | 49.9
31 | AACAUGUUAGGAUAUGAAAGAAAAGAAAAGAAAGAAAAGAAUCAGAAGGAACAUGAGGAUCACCCAUGUAAGAA [EteRNA is fun!] | 25.6 | 19.8
32 | AGCAAGAGAGGAUAUACAUAGGAAAAAAAAGUCAGAUCCCUACAUGAGGAUCACCCAUGUAGAAGGCUCUGGCA [Ex2 Design 154: Sub-opt 18] | 15.1 | 12.2
33 | AAAAAACAUGAGGAUCACCCAUGUAAGGAUAUGUAAAAUAAAAGAAAAAUAAAGAAAAGCAGAAGGUACAAAAA [JL wbt mod 19] | 25.9 | 25
34 | AGCACGUCAGGAUAUACGAAAAAAAAGGGUAAAAAAAAGGGACAUGAGGAUCACCCAUGUAGAAGGGACAAGCA [Diamond 93] | 147 | 172
